Laboratory results from patent US20110165116A1.

Tests used:
CCR2 (mouse) = CCR2 (mouse) (UniProt P51683); experiment: cell-based or functional assay
[1] = target: ICAM-1-Fc (Homo sapiens (Human)) (UniProt P05362); experiment: laminar flow adhesion assay, human T cells on coated ICAM-1-Fc
Sequence of UniProt P05362 (P05362 28-480 limits assumed): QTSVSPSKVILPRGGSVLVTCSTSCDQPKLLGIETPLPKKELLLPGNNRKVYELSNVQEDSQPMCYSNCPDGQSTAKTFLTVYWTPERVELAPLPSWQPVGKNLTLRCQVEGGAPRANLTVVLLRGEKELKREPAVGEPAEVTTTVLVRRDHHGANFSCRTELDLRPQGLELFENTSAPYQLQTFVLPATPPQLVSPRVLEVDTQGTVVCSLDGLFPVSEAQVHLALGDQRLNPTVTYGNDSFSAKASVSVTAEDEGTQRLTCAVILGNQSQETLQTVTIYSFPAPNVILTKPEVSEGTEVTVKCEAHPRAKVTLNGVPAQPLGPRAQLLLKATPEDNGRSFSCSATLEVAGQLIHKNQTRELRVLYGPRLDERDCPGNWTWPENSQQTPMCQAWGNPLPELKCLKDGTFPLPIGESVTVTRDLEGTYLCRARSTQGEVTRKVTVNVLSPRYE

Sequence of UniProt P51683 (P51683 whole entry): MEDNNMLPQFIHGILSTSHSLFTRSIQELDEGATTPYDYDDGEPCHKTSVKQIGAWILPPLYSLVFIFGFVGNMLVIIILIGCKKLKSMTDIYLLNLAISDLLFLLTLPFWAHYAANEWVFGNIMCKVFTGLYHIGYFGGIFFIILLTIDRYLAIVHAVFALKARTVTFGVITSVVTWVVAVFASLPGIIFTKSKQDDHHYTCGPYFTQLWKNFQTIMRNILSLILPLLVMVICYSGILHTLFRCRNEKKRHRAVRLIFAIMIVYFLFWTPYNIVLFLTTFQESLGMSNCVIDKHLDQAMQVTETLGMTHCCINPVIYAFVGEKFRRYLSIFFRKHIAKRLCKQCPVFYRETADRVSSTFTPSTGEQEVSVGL
Sequence of LFA-1 (P20701 26-1170): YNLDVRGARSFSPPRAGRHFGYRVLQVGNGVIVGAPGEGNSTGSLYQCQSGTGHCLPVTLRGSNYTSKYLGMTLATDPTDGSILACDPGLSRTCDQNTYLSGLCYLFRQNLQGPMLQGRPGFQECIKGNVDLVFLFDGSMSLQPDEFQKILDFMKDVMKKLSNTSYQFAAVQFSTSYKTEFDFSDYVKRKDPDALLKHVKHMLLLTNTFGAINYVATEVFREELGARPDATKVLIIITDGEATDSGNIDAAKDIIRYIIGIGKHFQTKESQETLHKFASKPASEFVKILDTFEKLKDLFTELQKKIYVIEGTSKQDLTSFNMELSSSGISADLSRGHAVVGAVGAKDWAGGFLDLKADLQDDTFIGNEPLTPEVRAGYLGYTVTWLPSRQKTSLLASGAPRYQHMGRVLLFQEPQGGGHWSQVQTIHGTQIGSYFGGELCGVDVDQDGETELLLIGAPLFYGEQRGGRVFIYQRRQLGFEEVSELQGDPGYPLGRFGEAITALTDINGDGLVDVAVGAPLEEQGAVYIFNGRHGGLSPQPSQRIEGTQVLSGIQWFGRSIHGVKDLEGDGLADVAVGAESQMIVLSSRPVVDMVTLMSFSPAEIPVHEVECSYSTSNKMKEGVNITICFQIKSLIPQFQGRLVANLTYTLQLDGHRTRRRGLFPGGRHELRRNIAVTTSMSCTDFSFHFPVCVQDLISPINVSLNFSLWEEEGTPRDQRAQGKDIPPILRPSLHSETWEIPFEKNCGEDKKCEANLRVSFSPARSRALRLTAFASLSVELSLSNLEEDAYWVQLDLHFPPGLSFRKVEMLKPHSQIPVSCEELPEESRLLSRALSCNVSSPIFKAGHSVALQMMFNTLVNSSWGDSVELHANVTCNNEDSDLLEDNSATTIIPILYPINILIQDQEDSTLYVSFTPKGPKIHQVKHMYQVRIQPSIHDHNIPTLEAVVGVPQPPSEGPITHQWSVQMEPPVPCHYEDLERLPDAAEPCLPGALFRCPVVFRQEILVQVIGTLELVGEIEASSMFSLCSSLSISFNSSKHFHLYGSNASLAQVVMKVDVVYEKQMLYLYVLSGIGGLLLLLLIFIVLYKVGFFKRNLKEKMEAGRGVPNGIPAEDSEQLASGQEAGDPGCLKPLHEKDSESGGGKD
Sequence of LFA-1 (P05107 23-769, further chain): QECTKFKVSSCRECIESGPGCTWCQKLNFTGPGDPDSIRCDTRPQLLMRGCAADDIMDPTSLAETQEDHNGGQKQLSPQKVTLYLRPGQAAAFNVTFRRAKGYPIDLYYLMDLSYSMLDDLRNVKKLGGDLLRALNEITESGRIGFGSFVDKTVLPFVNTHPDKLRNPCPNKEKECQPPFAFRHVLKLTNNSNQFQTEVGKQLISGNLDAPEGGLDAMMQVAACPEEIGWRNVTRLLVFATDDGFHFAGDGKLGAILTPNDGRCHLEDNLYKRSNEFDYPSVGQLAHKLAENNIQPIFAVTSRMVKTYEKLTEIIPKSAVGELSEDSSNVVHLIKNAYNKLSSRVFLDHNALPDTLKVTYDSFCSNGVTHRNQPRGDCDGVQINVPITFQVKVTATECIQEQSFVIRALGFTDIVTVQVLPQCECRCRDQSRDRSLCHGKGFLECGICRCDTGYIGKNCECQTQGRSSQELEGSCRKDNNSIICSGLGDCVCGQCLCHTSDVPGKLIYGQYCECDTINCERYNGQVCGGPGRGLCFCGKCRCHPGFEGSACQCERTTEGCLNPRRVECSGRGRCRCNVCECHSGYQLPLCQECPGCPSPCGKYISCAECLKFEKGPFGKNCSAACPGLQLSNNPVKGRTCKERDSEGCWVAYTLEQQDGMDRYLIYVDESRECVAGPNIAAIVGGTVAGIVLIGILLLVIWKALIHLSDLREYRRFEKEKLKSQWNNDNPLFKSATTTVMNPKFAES

Row | decrease in actin polymerization of naive T cells induced by CXCL12 or CCL21 (FITC-phalloidin, FACS) (CCR2 (mouse)) | decrease in migration of naive T cells in a Transwell assay towards CXCL12 or CCL21 after pretreatment with CCL2 (0.1 ng/ml) (CCR2 (mouse)) | percent of cellular tethers to ICAM-1 blocked by LFA-1 blockers [1] | Substance
1 | 40 to 50% | 40 to 50% | – | CCL2 (ligand)
2 | – | – | > 90% | LFA-1 (from UniProt P20701 26-1170; P05107 23-769) (receptor; other documents disagree on this pair)
